The subject of one data set is MS2 coat protein. The data set can be described thus: apparent KD of MS2 coat protein; higher = weaker reporter binding. Conditions: Eterna round: R107. The procedure: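 RNA-MaP round R107: designed RNA switches with theophylline, tryptophan, arginine or FMN aptamers are transcribed on-chip within common flanks. They are titrated with SNAP-549-labelled MS2 coat protein in RNA-MaP buffer (100 mM Tris pH 7.5, 80 mM KCl, 4 mM MgCl2), without ligand or with the indicated ligand. Median apparent KD per design.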

For data set [1], the system named is K4 kissing-loop RNA reporter. Briefly: apparent KD of K4 kissing-loop reporter; higher = weaker reporter binding. As to conditions: Eterna round: R107. The protocol:
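RNA-MaP round R107: designed RNA switches with theophylline, tryptophan, arginine or FMN aptamers are transcribed on-chip within common flanks. They are titrated with a labelled K4 kissing-loop RNA reporter in RNA-MaP buffer (100 mM Tris pH 7.5, 80 mM KCl, 4 mM MgCl2), without ligand or with the indicated ligand. Median apparent KD per design.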

Where [2] appears, read: input ligand: theophylline 20 uM.
[3] abbreviates: input ligand: theophylline 2 mM.
Where [4] appears, read: input ligand: tryptophan 2.4 mM.
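Throughout, for apparent KD of K4 kissing-loop reporter: bound reporter read as fluorescence of individual clusters on recovered sequencing chips by microscopy, with normalized cluster intensities fitted with a binding model.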

As to “AAAAUAAAGGCGGCCGCCACUAGAGUUAGGCAUAUGUACUGGGUAACAUGAGGAUCACCCAUGUAUAGGACCGGGCCAUAAUAAA [Same State - Tryptophan B (Freestyle 1)]”, the “apparent KD of MS2 coat protein” value was found to be 51.7 nM in the data set on MS2 coat protein (input ligand: arginine 13.2 mM); 39.9 nM in the data set with MS2 coat protein (input ligand: none); 46.2 nM in the data set with MS2 coat protein (setting [2]); 33.4 nM in the data set with MS2 coat protein (setting [3]); 36.5 nM in the data set on MS2 coat protein (setting [4]).
The corresponding values for “AAAAUAUAGACGGCCGCCACUAUAAACAUGAGGAACAUGAGGAUCACCCAUGUAUGAGGAUCACCUAGGACCGGGUCAUAUAAAA [AstrosExyTryB#1]” are 28.6 nM, 43 nM, 55.4 nM, 41.7 nM and 40.2 nM.
On to “AAACAUUGCUGCGAUACCAGACAUGAGGAUCACCCAUGUACCAAGGUAAGAAAAUAACAUGUCCCUUGGCAGCGCAGCAAUGAAA [MAT - Exclusion Theophlline B - Mod of Eli - D2]”, for which the “apparent KD of MS2 coat protein” value was 19.2 nM in the data set with MS2 coat protein (input ligand: arginine 13.2 mM), 33.4 nM in the data set with MS2 coat protein (setting [2]) and 15.8 nM in the data set on MS2 coat protein (setting [4]).
The corresponding values for “AAACGUUGCUCAGAUACCAGACAUGAGGAUCACCCAUGUACCGAGGUACCCGAAAGGAAUGUCCCUUGGCAGCUGAGCAACGAAA [MAT - Exclusion Theophlline B - Mod of Eli - D23]” are 14.6 nM, 19 nM and 10.2 nM.
As for “UUACUACCCAGUGAUGUUGGGUAGCGGCGGCGAGGACCGGUACGGCCGCCACUCGGCGCACGGGAGUGAUGUUCCUAAGAAUAAA [Same State Tryptophan A GF 9]”, the “apparent KD of K4 kissing-loop reporter” value in data set [1] (input ligand: FMN 200 uM) amounted to 295 nM; in data set [1] (input ligand: arginine 13.2 mM) it was 306 nM; in data set [1] (input ligand: none) it was 335 nM; in data set [1] (setting [2]), 350 nM; in data set [1] (setting [4]) it was 140 nM.
The matching figures for “UUACUGCCCAGUGAUGUUGGGUAUCGGCGGCGAGGACCGGUACGGCCGCCACUCGGCGCACAGGCGGAGUGAUGUUUCGCUUAAA [Same State Tryptophan A GF 12]”: 621 nM, 539 nM, 627 nM, 631 nM and 186 nM.
Consider “UUAGCUCUAUAGAGCAAGAGGUAUACUGAUACCAGAGGCUAUAGCCUCCCUUGGCAGCGGAACGAGUGAUGUUCGAAACCUCAUU [AK5 SS Theophylline A]”, for which the “apparent KD of K4 kissing-loop reporter” value in data set [1] (input ligand: FMN 200 uM) is 754 nM; in data set [1] (input ligand: arginine 13.2 mM) it was 898 nM; in data set [1] (input ligand: none), 940 nM; in data set [1] (setting [2]), 799 nM; in data set [1] (setting [4]) it was 526 nM.
The corresponding values for “UUAUAUUUUAUAUUUAGUAGAGCUCUAGCUCGAGGACCGGUACGGCCGCCACUCGAGUGAUGUUCGAGUGGAAGAGCUCUACAUU [AK3.1 EXC Tryptophan A]” are 114 nM, 99.9 nM, 110 nM, 98.2 nM and 435 nM.
With “UUCCUAUUAUUAACACUAUAUACAACUGAAGGAGCGACAAUAAAGUCAGGUAGGUCGCAGAAUUAAUGAGUGAUGUUCAUUUUUA [JR_ExcArginiA_Sub013]”, the “apparent KD of K4 kissing-loop reporter” value in data set [1] (input ligand: FMN 200 uM) amounted to 81.9 nM; in data set [1] (input ligand: arginine 13.2 mM), 141 nM; in data set [1] (input ligand: none) it was 96.6 nM; in data set [1] (setting [2]) it was 124 nM; in data set [1] (setting [4]), 60.9 nM.
The matching figures for “UUCCUCAUGGUAGUGAUGUUGCCGCCCGAUACCAGUCGACGUAUUGACCCUUGGCAGCGGAUCAAGUCCGAUUAAUUUUUUGGUC [theeternabot_sameState_KL_Theo_A_5]”: 216 nM, 190 nM, 217 nM, 320 nM and 196 nM.
For the sequence “UUCUACGAGUGAUGUUCGUAGUGUAAUAGCUAGGAUAUCGUUUUUUCGAGAAGGAGCUUCGAAGUGAUACGAAAGUAUCGCUUCG [FMN A 12]”, the “apparent KD of K4 kissing-loop reporter” value in data set [1] (input ligand: FMN 200 uM) turned out to be 227 nM; in data set [1] (input ligand: arginine 13.2 mM) it was 369 nM; in data set [1] (input ligand: none), 349 nM; in data set [1] (setting [4]), 264 nM.
Regarding “UUGAGCCUGACGAAAGUCAGGCUCUGCGAGCGAGGACCGGUACGGCCGCCACUCGGUGCAGUGAUGUUGCAUGGCCGCAAGGCCG [#2 Exclusion - Tryptophan A Attempt #14 (HarryS)]”, the “apparent KD of K4 kissing-loop reporter” value in data set [1] (input ligand: FMN 200 uM) was 309 nM; in data set [1] (input ligand: arginine 13.2 mM) it was 300 nM; in data set [1] (input ligand: none), 289 nM; in data set [1] (setting [2]), 312 nM; in data set [1] (setting [4]), 456 nM.
The matching figures for “UUGCCCGAUGGAGAUACCAGCAGUUGUGCAGUGAUGUUGCACAAGUACUCGCUCCAUUGCUGCCCUUGGCAGCUCCCGGCGAAAA [Reoraren]”: 95.9 nM, 79.7 nM, 84.7 nM, 92.4 nM and 81.3 nM.
The matching figures for “UUGCUUCUACUAGGAUAUCAUCAGUCAUGUUCAAUGACACUCGAGUGAUGUUCGAUAGAAGCGAGAUGAGAAGGAGUACAAGCAG [FMB B SS t3]”: 374 nM, 48.8 nM, 159 nM, 118 nM and 70.7 nM.
The corresponding values for “UUGGAGUGAUGUUCCAUAUCUUGAGCCGAAGGAGCGGCAUUAUUGCCAGGUAGGUCGCGGCAGAAGGUACCAGUGAUGUUGGAAA [Same State Arginine A GF 4]” are 136 nM, 138 nM, 151 nM, 126 nM and 125 nM.
For “UUGGCUGGACGGGAUACCAGCCAAAUCGUGUGCUUAGGAUGUCUAAGAGCCAGUGAUGUUGGCCCUUGGCAGCCCUCCUAGCUUG [Ordigear]”, the “apparent KD of K4 kissing-loop reporter” value was found to be 154 nM in data set [1] (input ligand: FMN 200 uM); 115 nM in data set [1] (input ligand: arginine 13.2 mM); 138 nM in data set [1] (input ligand: none); 124 nM in data set [1] (setting [2]); 136 nM in data set [1] (setting [4]).

For the origin of these results see the supplement of paper PMC9170038.
